Assay results taken from patent US11015206B2, “Compositions and methods comprising sequences having hydroxyphenylpyruvate dioxygenase (HPPD) activity” (PIONEER HI-BRED INTERNATIONAL, INC., priority 2014, dated 2021).
Numbering of substitutions follows the chain as printed.

B1: R7-9070: shuffled maize HPPD, Round 7, variant 9070 (SEQ ID NO:2); backbone for saturation mutagenesis (protein)
chain: MGPTPTATAAGAAVAAASAAEQAAFRLVGHRNFVRFNPRSDRFQTLAFHHVELWCADAASAAGRFSFALGVPLAARSDLSTGNSAHASLLLRSGSLSLLFTAPYAHGADAATAALPSFSAAAARRFAADHGLAVRAVALRVADAEDAFRASVAAGARPAFGPVDLGRGFRLAEVELYGDVVLRYVSYPDGAAGEPFLPGFEGVASPGAADYGLSRFDHIVGNVPELAPAAAYMAGFTGFHEFAEFTTEDVGTTESGLNSMALANNSENVLLPLNEPVHGTKRRSQIQTFLDHHGGPGVQHIALASDDVLRTLREMRARSAMGGFEFLPPPLSDYYDGVRRCAGDVLTEAQINECQELGVMVDRDDQGVLLQIFTKPVGDRPTFFLEIIQRIGCMEKDEKGQEYQKGGCGGFGKGNFGQLFKSIEDYEKSLEAKQAAAAATAQGS
modifications: Zea mays variant form created by artificial means.
notes: backbone for saturation mutagenesis
B2: P056028-A-01 (protein)
chain: B1 chain with Q366E, Q434R
modifications: Zea mays variant form created by artificial means.
B3: P056028-D-03 (protein)
chain: B1 chain with L182M, S214N, Q366E
modifications: Zea mays variant form created by artificial means.
B4: P056028-A-03 (protein)
chain: B1 chain with A191G, Y211L, Q366E, A432R, Q434R
modifications: Zea mays variant form created by artificial means.
B5: P056028-G-01R (protein)
chain: B1 chain with Y211L, S214N, R340K, Q366E, M394R, A432K, Q434R
modifications: Zea mays variant form created by artificial means.
B6: 9070Q366E (protein)
chain: B1 chain with Q366E
modifications: Zea mays variant form created by artificial means.
B7: P056028-B-09 (protein)
chain: B1 chain with G337D, Q366E, M394V, Q434R
modifications: Zea mays variant form created by artificial means.
B8: P056028-G-01 (protein)
chain: B1 chain with Y211L, S214N, R340K, Q366E, A432K, Q434R
modifications: Zea mays variant form created by artificial means.
B9: P056028-B-02 (protein)
chain: B1 chain with P206S, E356K, Q366E, K428R, A438V
modifications: Zea mays variant form created by artificial means.
B10: Z. mays wt: maize wild-type HPPD, SEQ ID NO:1 (glycine for proline at position 2) (protein)
chain: MGPTPTAAAAGAAVAAASAAEQAAFRLVGHRNFVRFNPRSDRFHTLAFHHVELWCADAASAAGRFSFGLGAPLAARSDLSTGNSAHASLLLRSGSLSFLFTAPYAHGADAATAALPSFSAAAARRFAADHGLAVRAVALRVADAEDAFRASVAAGARPAFGPVDLGRGFRLAEVELYGDVVLRYVSYPDGAAGEPFLPGFEGVASPGAADYGLSRFDHIVGNVPELAPAAAYFAGFTGFHEFAEFTTEDVGTAESGLNSMVLANNSENVLLPLNEPVHGTKRRSQIQTFLDHHGGPGVQHMALASDDVLRTLREMQARSAMGGFEFMAPPTSDYYDGVRRRAGDVLTEAQIKECQELGVLVDRDDQGVLLQIFTKPVGDRPTLFLEIIQRIGCMEKDEKGQEYQKGGCGGFGKGNFSQLFKSIEDYEKSLEAKQAAAAAAAQGS
modifications: Zea mays

Legend:
[1] = test system: 4-hydroxyphenylpyruvate dioxygenase (HPPD); assay: ON rate ratio: HPPD reaction rate with vs without inhibitor in the 70 to 90 second interval; type: biochemical, Z. mays; details: for ON ratio (parameters with tembotrione): Table 5; for Insensitivity, isoxaflutole (DKN), Rate ratio ON: inhibitor diketonitrile form of isoxaflutole (DKN); for Insensitivity, mesotrione, Rate ratio ON: inhibitor mesotrione; for Insensitivity, sulcotrione, Rate ratio ON: inhibitor sulcotrione; for Insensitivity, tembotrione, Rate ratio ON: inhibitor tembotrione; for Insensitivity, topramezone, Rate ratio ON: inhibitor topramezone
In short: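 Time courses of HPPD reactions, 60 or 120 nM enzyme with 100 μM HPP substrate, run with and without 4 μM inhibitor (e.g. mesotrione, tembotrione). Value is the rate with inhibitor over rate without, taken over 70–90 s; higher ratio reflects slower kON.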

[2] = test system: 4-hydroxyphenylpyruvate dioxygenase (HPPD); assay: Estimate of kcat from initial rate at saturating hydroxyphenylpyruvate without inhibitor (ON rate ratio assay); type: biochemical, Z. mays
In short: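 Reactions used 60 or 120 nM HPPD and saturating 100 μM hydroxyphenylpyruvate without inhibitor. kcat was estimated from the initial rate at the known enzyme concentration.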

[3] = Table 7, tembotrione, combinatorial variants
[4] = Table 5, single substitutions in Round 7 variant 9070 (SEQ ID NO:2), estimate from initial rate at saturating hydroxyphenylpyruvate without inhibitor
[5] = Table 7, combinatorial variants

Molecule | ON ratio (parameters with tembotrione) ([1]; tembotrione) | ON rate ratio [1, 3] | Insensitivity, isoxaflutole (DKN), Rate ratio ON [1] | Insensitivity, mesotrione, Rate ratio ON [1] | Insensitivity, sulcotrione, Rate ratio ON [1] | Insensitivity, tembotrione, Rate ratio ON [1] | Insensitivity, topramezone, Rate ratio ON [1] | ON rate ratio ([1]; mesotrione) | kcat ([2]; Megatable 3, shuffled variants) [s⁻¹] | kcat [2, 4] [s⁻¹] | kcat [2, 5] [s⁻¹] | ON rate ratio ([1]; mesotrione, listed as wild type)
B1 | 0.74 | 0.744 | 0.82 | 0.66 | 0.81 | 0.80 | 0.79 | 0.67 | 0.667 | 0.57 | 0.667 | 
B2 |  | 0.697 | 0.82 | 0.67 | 0.80 | 0.84 | 0.85 |  | 0.652 |  | 0.652 | 
B3 |  | 0.770 | 0.76 | 0.68 | 0.76 | 0.77 | 0.80 |  | 0.327 |  | 0.327 | 
B4 |  | 0.748 | 0.81 | 0.70 | 0.80 | 0.80 | 0.81 |  | 0.4 |  | 0.4 | 
B5 |  | 0.719 | 0.77 | 0.73 | 0.75 | 0.72 | 0.81 |  | 1.18 |  | 1.18 | 
B6 |  | 0.760 | 0.83 | 0.72 | 0.80 | 0.82 | 0.81 |  | 0.335 |  | 0.335 | 
B7 |  | 0.648 | 0.77 | 0.67 | 0.78 | 0.75 | 0.80 |  | 0.575 |  | 0.575 | 
B8 |  | 0.742 | 0.77 | 0.71 | 0.78 | 0.77 | 0.80 |  | 0.537 |  | 0.537 | 
B9 |  | 0.800 | 0.80 | 0.63 | 0.81 | 0.80 | 0.79 |  | 0.47 |  | 0.47 | 
B10 | 0.17 |  | 0.08 | 0.20 | 0.30 | 0.20 | 0.100 | 0.20 |  | 3.5 |  | 0.2
